Laboratory results from patent US20250215104A1 (WALDEN BIOSCIENCES, published 2025).
Positions count from the first letter of the chain named.

B1: suPAR_DB06_C09 (scFv, V domains shown)
VH: QVQLVQSGAEVKKPGASVKVSCKASGYTFTSYYMHWVRQAPGQGLEWMGWIDPENGNTIYDQKFQGRVTMTRDTSTSTVYMELSSLRSEDTAVYYCARGYDVDWFVYWGQGTLVTVSS
VL: DIQMTQSPSSLSASVGDRVTITCRARSSVSYMYWYQQKPGKAPKLLIYRTSNLASGVPSRFSGSGSGTDFTLTISSLQPEDFATYYCQQYHSYPPTFGGGTKVEIK
B2: suPAR_DB06_D05 (scFv, V domains shown)
VH: B1 VH with Y27G, S31G, E54S, N55G
VL: B1 VL with R24S, S27Q
B3: suPAR_DB06_C11 (scFv, V domains shown)
VH: B1 VH with S31N, P53H
VL: B1 VL with R24S, S27Q
B4: suPAR_DB06_F02 (scFv, V domains shown)
VH: B1 VH with S31N, P53H, N57S, I59S
VL: B1 VL with S27Q
B5: suPAR_DB06_D09 (scFv, V domains shown)
VH: B1 VH with Y27G, P53H, N57S, D61A
VL: B1 VL with R24S, R26S
B6: suPAR_DB06_D10 (scFv, V domains shown)
VH: B1 VH with D61A
VL: B1 VL with R24S
B7: suPAR_DB06_E05 (scFv, V domains shown)
VH: B1 VH with Y32H, M34I, H35Q, P53H, Y100T
VL: B1 VL with R24S
B8: suPAR_DB06_D12 (scFv, V domains shown)
VH: B1 VH with Y27G, T30S, D61A
VL: B1 VL with R24S, S27Q, N52S
B9: suPAR_DB06_D07 (scFv, V domains shown)
VH: B1 VH with S31N, P53H, N55G, D61A
VL: B1 VL with R24S
B10: suPAR_DB06_E07 (scFv, V domains shown)
VH: B1 VH with S31N, M34L, E54H, N55S, N57G, I59N, D61A, R98S
VL: B1 VL with R24S
B11: suPAR_DB06_C12 (scFv, V domains shown)
VH: B1 VH with T28S, S31A, Y32N, M34I, P53H, R98N
VL: B1 VL with R24S
B12: suPAR_DB06_E09 (scFv, V domains shown)
VH: B1 VH with Y27H, S31N, M34V, P53H, N57S, I59S
VL: B1 VL with R24S
B13: suPAR_DB06_D06 (scFv, V domains shown)
VH: B1 VH with S31N, D61A
VL: B1 VL with R24S
B14: suPAR_DB06_E10 (scFv, V domains shown)
VH: B1 VH with Y27D, T30I
VL: B1 VL with R24S
B15: suPAR_DB06_E04 (scFv, V domains shown)
VH: B1 VH with Y27D, T30S, P53H, V102M
VL: B1 VL with A54Q
B16: suPAR_DB06_E08 (scFv, V domains shown)
VH: B1 VH with T28G, S31D, P53H, E54S, N55G, D61A
VL: B1 VL with R24S, S27Q
B17: suPAR_DB06_E11 (scFv, V domains shown)
VH: B1 VH with S31G, P53H, D61A
VL: B1 VL with R24S, R26S
B18: suPAR_DB06_E03 (scFv, V domains shown)
VH: B1 VH with Y27F, T28N, F29I, T30K, S31D, M34I, I59S
VL: B1 VL with R24S
B19: suPAR_DB06_F06 (scFv, V domains shown)
VH: B1 VH with Y27G, T30I, S31G, Y32H, M34V, P53H
VL: B1 VL with R24S
B20: suPAR_DB06_D08 (scFv, V domains shown)
VH: B1 VH with S31N, N55G, I59S
VL: B1 VL with R24S
B21: suPAR_DB06_D11 (scFv, V domains shown)
VH: B1 VH with T30A, S31N, M34V, M48V, W50M, E54G, N55G, N57T, I59N, D61A
VL: B1 VL with S27Q
B22: suPAR_DB06_E12 (scFv, V domains shown)
VH: B1 VH with P53H, I59S, D61A
VL: B1 VL
B23: suPAR_DB06_F01 (scFv, V domains shown)
VH: B1 VH with Y27G, M34V, N55G, I59S
VL: B1 VL with R24S
B24: suPAR_DB06_F05 (scFv, V domains shown)
VH: B1 VH with Y27D, T28S, S31G, M34I, P53H
VL: B1 VL with R24S
B25: suPAR_DB06_C10 (scFv, V domains shown)
VH: B1 VH with T30S, S31A, E54S
VL: B1 VL with R24S
B26: suPAR_DB06_E02 (scFv, V domains shown)
VH: B1 VH with T28S, S31N, P53H
VL: B1 VL with R24S
B27: suPAR_DB06_E06 (scFv, V domains shown)
VH: B1 VH with Y27D, F29S, P53H, N57S
VL: B1 VL with R24S
B28: suPAR_DB06_F03 (scFv, V domains shown)
VH: B1 VH with T28S, S31N, P53H, Y100N
VL: B1 VL with R24S, R26S, S27Q
B29: suPAR_DB06_D02 (scFv, V domains shown)
VH: B1 VH with Y32N, P53H
VL: B1 VL with R24S, R26S
B30: suPAR_DB06_F04 (scFv, V domains shown)
VH: B1 VH with T28R, D61A
VL: B1 VL with R24S, S27Q

target: T1, human soluble urokinase plasminogen activator receptor (suPAR) (human, UniProt Q03405 23-303, limits assumed); test: BLI (Octet) off-rate screen of scFv clones
T1 construct: Target antigen of the scFv off-rate screen; also called hsuPAR; human suPAR
T1 sequence (Q03405 23-303 limits assumed): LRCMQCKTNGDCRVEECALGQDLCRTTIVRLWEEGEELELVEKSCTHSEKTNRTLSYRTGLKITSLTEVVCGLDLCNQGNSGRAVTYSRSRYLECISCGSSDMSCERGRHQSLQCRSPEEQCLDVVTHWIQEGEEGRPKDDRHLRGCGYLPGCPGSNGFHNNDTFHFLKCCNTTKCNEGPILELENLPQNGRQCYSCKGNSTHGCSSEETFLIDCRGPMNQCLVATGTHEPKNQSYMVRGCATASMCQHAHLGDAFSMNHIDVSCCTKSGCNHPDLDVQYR

| koff [s⁻¹] | Binder |
| --- | --- |
| 0.00382 | B1 |
| 0.00558 | B2 |
| 0.00201 | B3 |
| 0.00157 | B4 |
| 0.00149 | B5 |
| 0.00425 | B6 |
| 0.00315 | B7 |
| 0.00515 | B8 |
| 0.00244 | B9 |
| 0.00497 | B10 |
| 0.00484 | B11 |
| 0.00316 | B12 |
| 0.00406 | B13 |
| 0.00526 | B14 |
| 0.00541 | B15 |
| 0.00335 | B16 |
| 0.00118 | B17 |
| 0.00201 | B18 |
| 0.00331 | B19 |
| 0.00166 | B20 |
| 0.0021 | B21 |
| 0.00373 | B22 |
| 0.00305 | B23 |
| 0.00531 | B24 |
| 0.00599 | B25 |
| 0.00189 | B26 |
| 0.00135 | B27 |
| 0.004 | B28 |
| 0.00422 | B29 |
| 0.00574 | B30 |

target: T2, cynomolgus soluble urokinase plasminogen activator receptor (suPAR) (cynomolgus, UniProt Q9GK78 23-303, limits assumed); test: BLI (Octet) off-rate screen of scFv clones
T2 construct: Target antigen of the scFv off-rate screen; also called cynomolgus suPAR; cynomolgus uPAR
T2 sequence (Q9GK78 23-303 limits assumed): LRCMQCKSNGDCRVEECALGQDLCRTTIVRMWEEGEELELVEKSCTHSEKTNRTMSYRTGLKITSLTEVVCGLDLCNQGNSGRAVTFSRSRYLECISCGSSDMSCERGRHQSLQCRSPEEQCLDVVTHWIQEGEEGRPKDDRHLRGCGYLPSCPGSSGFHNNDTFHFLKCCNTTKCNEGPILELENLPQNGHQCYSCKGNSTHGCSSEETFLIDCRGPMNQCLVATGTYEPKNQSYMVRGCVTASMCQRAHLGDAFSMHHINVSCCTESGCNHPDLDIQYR

| koff [s⁻¹] | Binder |
| --- | --- |
| 0.000566 | B1 |
| 0.000222 | B2 |
| 0.000631 | B3 |
| 0.000258 | B4 |
| 0.000341 | B5 |
| 0.000365 | B6 |
| 0.000905 | B7 |
| 0.000189 | B8 |
| 0.000565 | B9 |
| 0.000388 | B10 |
| 7.52e-05 | B11 |
| 0.000301 | B12 |
| 0.000261 | B13 |
| 0.000271 | B14 |
| 0.000388 | B15 |
| 2.02e-05 | B16 |
| 0.000723 | B17 |
| 0.00037 | B18 |
| 0.00055 | B19 |
| 0.000715 | B20 |
| 0.000439 | B21 |
| 0.000164 | B22 |
| 0.000197 | B23 |
| 3.1e-07 | B24 |
| 0.00048 | B25 |
| 0.000589 | B26 |
| 0.000319 | B27 |
| 0.00059 | B28 |
| 0.00023 | B29 |
| 0.000315 | B30 |
